From article doi:10.1101/2023.01.30.525655

Columns and labels:
[1] = biological target: RED-NHS-MIF-6xHis (human MIF-6xHis labelled with the RED-NHS dye) (human) (UniProt P14174); assay: MST
[2] = biological target: MIF-6xHis (human macrophage migration inhibitory factor, hexahistidine-tagged) (human) (UniProt P14174); assay: SEC
[3] = biological target: MDL1-6xHis (Arabidopsis thaliana MIF/D-DT-like protein 1, hexahistidine-tagged) (Arabidopsis thaliana); assay: SEC
[4] = biological target: MDL1-6xHis (Arabidopsis thaliana MIF/D-DT-like protein 1, hexahistidine-tagged) (Arabidopsis thaliana); assay: crystal structure

Sequence of MIF-6xHis (human macrophage migration inhibitory factor, hexahistidine-tagged) (human) (P14174 2-115): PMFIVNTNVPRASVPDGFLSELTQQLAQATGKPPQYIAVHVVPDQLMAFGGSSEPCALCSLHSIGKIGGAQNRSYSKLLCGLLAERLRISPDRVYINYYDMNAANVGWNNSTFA
Sequence of RED-NHS-MIF-6xHis (human MIF-6xHis labelled with the RED-NHS dye) (human) (P14174 2-115): as above

- Kd [1]: < 5 µM
- fraction of the mixture in the hetero-hexamer [2]: 0.33
- stoichiometry N [3]: 3
- stoichiometry N [4]: 3
Substance: MDL1-6xHis (Arabidopsis thaliana MIF/D-DT-like protein 1, hexahistidine-tagged) (natural protein)
